From the DeepSol protein solubility set come the findings set out here.

The data set is described as follows: soluble on expression in E. coli; label from the status in PepcDB or PDB records.
For “MGKPSGERILQMKIALVMLAAGNSRRFGSNKLLYEIEGKPMYLLTLEKLKKASEKIPESEIIVVTQYEEIVKKAGEMKIPVFINPRPEDGISLSMQIGLMSVRDTDACLFTVSDQPWLEADTVVALTELFENEKKGMACIRWNGKTGNPCIFGQKYYEELMEISGDKGGKKIIKKHPEDVAYLQIRNARELQDADEPDVFTAGNLR”, the “soluble on expression in E. coli” value is “not soluble”.

Turning to “PDATSKKVVPLGVEIYEINGPFFFGVADRLKGVLDVIEETPKVFILRMRRVPVIDATGMHALWEFQESCEKRGTILLLSGVSDRLYGALNRFGFIEALGEERVFDHIDKALAYAKLLVETAEERGRES”, the “soluble on expression in E. coli” value is reported as “soluble”.

Turning to “SLVLMSETKNELEDLLEKAATEPAHRPAFFRTLLESTVWVPGTAAQGEAVVEDSALDLQHWEKEDGTSVIPFFTSLEALQQVVEDEQAFVVMPVRTLFEMTLGETLFLNAKLPTGKEFMPREISLLIGEEGNSLSSQEVLEGGESLILSEVAEPPVQMIDSLTTLFKTIKPVKRAFICLIKESEEAQPNLLIGIEADGDIEEIIQAAGSVATDTLPGDEPIDICQVKKGEKGISHFITEHIAPFYERRWGGFLRDFKQNRII”, the “soluble on expression in E. coli” value is “soluble”.

As to “MKVGIVLGTKPSNPLEFWVGVEKGKFLQLDDVVVVNSKIDGTNEEIKFYGIVQEVIKYLEGVELVYDAQLVNSGVVPANLAYMARVSVTRIEPEVFIPPTPGDYVFKAEGIDFEKALYYDNMKRKIPAGLTRNGEVVYLNYDFINGREGAHISISGMSGVATKTSYALFLLYSIFQKADDRTKIHGIIFNVKGKDLLWIDKKNKRFTKEHREAFEKLGLPPEPFKNVAFWAPPEQEWSEIPSSGERLEGVFPYKWSMKDFAQEGLLRFLFAEGDEGATSLHYVIDRVSEKLQQLAKESPGDVLLDENGQEINSLGDLLKLLHEVIEDRETKRDPDRYREWFGTAATATAYAFLRRFHHAASHCKHLVHGNKSRHIDWRSHQLNVIDISDLHGIAKMFVVGSILKKIFREKEETGNPYPKIFVVLDELNKYAPKDKWSPIKEILLDIAERGRSLGVILIGAQQTASEIEKRIVANAAVKVTGRLDSSEVLSKEYEFLTGNFRQRAIMLKKGTMILYQPDIPNPVMIKFPLAPWATKKEEVEEEVSAPKEFDQF”, the “soluble on expression in E. coli” value is reported as “soluble”.

As for “MGSDKIHHHHHHMSLTITKLQKKIADQAVLNNITFSLSLGQVVGLVGPNGIGKTTIFRTVTHQYRADGGTIELDEQDLTDHPEQRENLFYLDNQHLFFRKYRLDKIAGDYQLLYATFDQARFMALIEKFGLQGSQRFQSLSKGYQALVMVALALASGAPYVFLDEPFDGLDLLIRERIVNLVVDAVADGKRTFLIASHNLVELDGLSDRVLFVKAGRISQDLTLEDVRQQAIKLQLVFKTKAIPDVIR”, the “soluble on expression in E. coli” value was “not soluble”.

On to “MASSVDEEALHQLYLWVDNIPLSRPKRNLSRDFSDGVLVAEVIKFYFPKMVEMHNYVPANSLQQKLSNWGHLNRKVLKRLNFSVPDDVMRKIAQCAPGVVELVLIPLRQRLEERQRRRKQGAGSLQELAPQDGSGYMDVGKVAFSISPSRLELSFCPSSCHL”, for which the “soluble on expression in E. coli” value is “not soluble”.

For the sequence “MSLKLRGHHLICLQFFRGEGYSGEFVENVKKIMERLESGETVEVVAGVDDICVACPYNRGYCGKDETSEERVREMDKAAVRLLGVSEKTTWREVAERIEKVLNEWRVFCEDCDWKEVCYGEGHHHHHH”, the “soluble on expression in E. coli” value is listed as “soluble”.

Consider “RYDKPGDKIDDGTELKLKGEKLKYVSRGGLKLEKGLHVFGVSVANQIGIDIGASTGGFTDVMLQDGAKLVYAVDVGTNQLVWKLRQDPRVRSMEQYNFRYAQPEDFNEGQPVFASIDVSFISLSLILPALHNVLSDQGQVIALIKPQFEAGREQIGKKGIVKDKQIHEKVIQKVMDFASGYGFTVKGLDFSPIQGGHGN”, for which the “soluble on expression in E. coli” value was “not soluble”.

Take “MSLSNAEITHREGVKMLVVRPISMADYEALHTCAVESGHGFTSLPVDQELLTNRITHSEYSFSKPNVTMPGDEGYLMVGVDTETGQVAGTTGIEASIGWDVPFYSYHISTIVHSSPKLGVNNVVKLLTFGNNYTGCSEICTLFLRPQYRQGLNGRLMSKCRFLMMAEHSHRFSKTIFAEMRGVSDADGNSPFWKWLQEHFFSIDFTLADYLTGIGKKGFIADLMPKLPIYVNLLSKEAQAVIGQVHENTRPALVLLEKEGFTCRNYVDIFDAGPTVECELNNIESVRHSVRAIVEVAEHSSSQNFIMCNTSFENFRATAAKAAYSQEDNAVIISPKVAAALEVSTGDYLRILAQEGHHHHHH”: the “soluble on expression in E. coli” value is listed as “soluble”.

As for “MAHHHHHHMYGPSFSQTVLVAATPVVMKSPPTFFKGGNFRRISRRSTLKTTPERVPRNMYQFIVGSPSGELGHHSMDVMVSVQETVIDSGITQMCCSMLKNRRRRSLWRVTYVFGNSGDTLYNCRALSIDGLARRSMRPSPVPPDKLLSSAALIPFSVPRDFFIVFN”, the “soluble on expression in E. coli” value is “not soluble”.

With “MSGSDDDATQISREDEELAYEIYFWIVRCICEKGVVKISELRKIYQSTVVKDRSVQFRPLPGVLKAVNENLLHWQGWNAVIQDDRLTYVNVNGDAPNEVRASETERTLGLLKNVLMYVFVATKPQSKHPGVAQEDLMSYMEASMSTHSDRKLSLDHMEFLKKLIAPNARSEFIKKGYLAFTKSVNENDEEVFRYEWGPAARQTVDPLALVQTFQQLTGMKPEMLKEQTERANELKAEQVAAVTRGGVLRTRGQ”, the “soluble on expression in E. coli” value is on record as “not soluble”.

Consider “GPGSMVSTRETLSVEEQRYLDQELPPRELLTSLRSRDRSPTDDNETDVTVPGDSFGIMRNRVAFYKPVPRDVYSGELGECFPEGCHPLRCVNPATLHHLSERFGVSIREAVKAMQNAQMDINIAIDELCRRKCIDPPAGSFGLVGLESYASETFCLVNFTLPSLEATRDDDVLDALHELTLSAAEIPLDTPTEDLVDKFVNNWTVEDGRSCKDVLDMYDLGVNKIVLLPHGDYSVEGFYVLHPVKEDTPNIGTGAAACCLDLRTGIHNRFRFHVERIADSVSEHVIRELVHYGQDVHVLRQAYWFKPEYSVEEYIRFKESLLQPSASVFEMRYAVLAVGSYALPGYRNLVEMEKLKVAQHKYEKHYEDFMSPGKWLTSDNSQLQTVAAGGGNAPGAALHMHTNGPDVALNAMETRAGPLRRTLETSIQAHGDRVFSRFYRNNHH”, for which the “soluble on expression in E. coli” value was “not soluble”.

For the sequence “METYLEIETLIKRIFNSFRHEVEAVLDKRLSGSEYRVLSLISSGLTKTSDLAKTLDVSASHITAITDTLVEEKLITRHRSEVDRRIIELKLTSNAEEFVKEIDKKKKEMIVKRFAVFSEYEQAEFRKLLKKLADGSQSNK”, the “soluble on expression in E. coli” value is listed as “not soluble”.

On to “MLATPFWYNAALKVLKPVYRWRIKKRAENEMRYQQECRERFGPFQQPQNRHALWFHAVSVGETNAAQPLIEYYLKLGHPVLVTNTTKTGQARAKSLFLKSPYLELFQAVYLPVDQIFLLKQFFELYQPKLLALVETELWPNLIDQAQHYGVPTFLINARLSEKSAQGYARVSALSNAMLSRLTGLLAQDQSTQQRFIGLGLAREKAQVVGNIKFDIDVPLLFVLEHHHHHH”, for which the “soluble on expression in E. coli” value is listed as “not soluble”.

For “MVCSGAPVALIPTSSGAIMLDYPSMRAVALVARTGSFEKAAQVLCVTPSAVSQRIKQLEERLGVVLIVRGNPCVATEKGEWLCRHMDHVGMLESELFRQLPALTEAGDAQERVTLNIATNADSLGTWFLDAVSKFTGGSDYLVNIAVDDQDHTVEWLRGGRVLAAVTAHDKPVQGCRVTPLGVLRYHATASPDFMARHFADGVTPAALARAPGLTFNQKDRLQASWIRTALGEDVSYPTHWLPSTDGFVKASLAGMGWGLNPVQLVAEHLAAGRLVELMPGTPLDIPLYWQVNRLAAERLAGLTANMVGTARVVLMPVG”, the “soluble on expression in E. coli” value is recorded as “soluble”.

Consider “MSDTPAQTPEPSKKTPEPSGVDLARVALRAAKEQARARGDAAQQKRQARRGGLRSGARADGRDPMALGAAINRLLTERGWETPAAVGGVMGRWPQIVGEDLAKHCVPQRYDEDERVLTVQCDSTAWATQLRLLAPQLVARLNEDLGHGTVRLLKVQGPGGPARRYGPLRAPGSTGPGDTYG”, for which the “soluble on expression in E. coli” value is given as “not soluble”.

As for “GHMPAYVFSKESFLKFLEGHLEDDVVVVVSSDVTDFCKKLSESMVGEKEYCFAEFAFPADIFDADEDEIDEMMKYAIVFVEKEKLSEAGRNAIR”, the “soluble on expression in E. coli” value is listed as “soluble”.
